Experimental data taken from patent US20180118841A1.

Assays:
[1] = biological target: OX40 human/mouse chimera 1544 (human; mouse) (UniProt P47741); assay: FACS, 293-F transfectants; MFI/isotype control
[2] = biological target: CD137 human/mouse chimera 1550 (human; mouse) (UniProt P20334); assay: FACS, 293-F transfectants; MFI/isotype, normalized to full-length CD137
Chain of CD137 human/mouse chimera 1550 (human; mouse) (P20334 other isoform, or with tags, fused parts or gaps mutant limits assumed): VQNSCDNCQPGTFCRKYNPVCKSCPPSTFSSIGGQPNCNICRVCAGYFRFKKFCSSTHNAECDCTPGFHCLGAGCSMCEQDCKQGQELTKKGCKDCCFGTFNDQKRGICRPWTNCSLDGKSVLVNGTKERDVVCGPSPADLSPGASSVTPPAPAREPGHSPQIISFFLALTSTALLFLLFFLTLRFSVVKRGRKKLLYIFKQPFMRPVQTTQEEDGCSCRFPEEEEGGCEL

Chain of OX40 human/mouse chimera 1544 (human; mouse) (P47741 other isoform, or with tags, fused parts or gaps mutant limits assumed): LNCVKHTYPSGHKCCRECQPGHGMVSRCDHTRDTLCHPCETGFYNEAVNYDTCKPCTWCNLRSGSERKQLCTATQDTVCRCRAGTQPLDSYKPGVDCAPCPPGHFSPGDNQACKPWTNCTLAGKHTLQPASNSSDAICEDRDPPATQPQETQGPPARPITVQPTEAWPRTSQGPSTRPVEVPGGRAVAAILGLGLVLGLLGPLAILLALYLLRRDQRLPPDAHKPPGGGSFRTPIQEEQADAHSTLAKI

B1: anti-OX40 antibody 1170/1171 (antibody, V domains shown)
VH: EVQLLESGGGLVQPGGSLRLSCAASGFTFGGYYMSWVRQAPGKGLEWVSYIPGSGGSTYYADSVKGRFTISRDNSKNTLYLQMNSLRAEDTAVYYCARYDYYWMDYWGQGTLVTVSS
VL: DIQMTQSPSSLSASVGDRVTITCRASQSISSYLNWYQQKPGKAPKLLIYAASSLQSGVPSRFSGSGSGTDFTLTISSLQPEDFATYYCQQGHGSYPHTFGQGTKLEIK
relative MFI [1]: 2

B2: anti-CD137 antibody 1204/1205 (antibody, IgG1, V domains shown)
VH: EVQLLESGGGLVQPGGSLRLSCAASGFTFSSYYMGWVRQAPGKGLEWVSGIGSYYGYTGYADSVKGRFTISRDNSKNTLYLQMNSLRAEDTAVYYCARAYYDYNYYYAYFDYWGQGTLVTVSS
VL: DIQMTQSPSSLSASVGDRVTITCRASQSISSYLNWYQQKPGKAPKLLIYAASSLQSGVPSRFSGSGSGTDFTLTISSLQPEDFATYYCQQSVPHYPFTFGQGTKLEIK
relative binding [2]: 0.07
